In patent US10253323B2, “Chloroplast transit peptides” (priority 2015, dated 2019):
Entries after “also recorded” stand apart in the source; their conditions may differ.

B1: TraP27: synthetic chloroplast transit peptide, SEQ ID NO:7; tested fused to GFP (pDAB109848) (protein)
chain: MATFTRVCHTARKSFVSLSNSQANSPVSVRFLSLPMPAARPAVKSGVRLWGCRLSFKVSAS
modifications: TraP27
B2: TraP18: chimeric chloroplast transit peptide, SEQ ID NO:4; N-terminus Oryza sativa, C-terminus Amaranthus; tested fused to GFP (pDAB107635) (protein)
chain: MAATMASNAAAAAAVSLDQAVAASAAFSSKTLNFGSNLRISPKFMSLTNKRVGGQSSIVPKIQASVA
modifications: TraP18
B3: TraP19: chimeric chloroplast transit peptide, SEQ ID NO:5; N-terminus Amaranthus, C-terminus Dunaliella salina; tested fused to GFP (pDAB107636) (protein)
chain: MAQATTINNGVHTGQLHHTLPKTQLPKSSKVNDVVPHVYSAPLSVARRSCSKSSIRSTRRLQTTVCS
modifications: TraP19

Tests used:
[1] = system: chloroplasts of the tobacco leaf tissues; assay: Tobacco transient assay, confocal microscopy of TraP-YFP/GFP; format: cell-based, Nicotiana tabacum; details: TraP-YFP or TraP-GFP fusion, Agrobacterium-infiltrated tobacco leaf tissue
Text: The above described chimeric chloroplast transit peptide sequences were initially tested via a transient in planta assay. Polynucleotide sequences which encode the TraP10 (SEQ ID NO:9), TraP11 (SEQ ID NO:10), TraP17 (SEQ ID NO:11), TraP18 (SEQ ID NO:12), TraP19 (SEQ ID NO:13), TraP26 (SEQ ID NO:14), TraP27 (SEQ ID NO:15), and TraP28 (SEQ ID NO:16), chimeric chloroplast transit peptide sequences were synthesized. A linker sequence (SEQ ID NO:17) was incorporated between the TraP sequence and the yfp coding sequence of TraP10 and TraP11. The resulting constructs contained two plant transcription units (PTU). The first PTU was comprised of the Arabidopsis thaliana Ubiquitin 10 promoter (AtUbi10 promoter; Callis, et al., (1990) J. Biol. Chem., 265: 12486-12493), TraP-yellow fluorescent protein fusion gene (TraP-YFP; US Patent App. 2007/0298412) or the TraP-green fluorescent protein fusion gene (TraP-GFP; Sheen et al., (1995) Plant J., 8(5): 777-84), and Agrobacterium tumefaciens ORF 23 3′ untranslated region (AtuORF23 3′UTR; U.S. Pat. No. 5,428,147). The second PTU was comprised of the Cassava Vein Mosaic Virus promoter (CsVMV promoter; Verdaguer et al., (1996) Plant Molecular Biology, 31: 1129-1139), phosphinothricin acetyl transferase (PAT; Wohlleben et al., (1988) Gene, 70: 25-37) or DSM-II (International Patent App. 2008070845), and Agrobacterium tumefaciens ORF 1 3′ untranslated region (AtuORF1 3′UTR; Huang et al., (1990) J. Bacteriol., 172: 1814-1822). Construct pDAB101979 contains the TraP10 chimeric chloroplast transit peptide (FIG. 3). Construct pDAB101980 contains the TraP11 chimeric chloroplast transit peptide (FIG. 4). Construct pDAB107634 contains the TraP17 chimeric chloroplast transit peptide (FIG. 5). Construct pDAB107635 contains the TraP18 chimeric chloroplast transit peptide (FIG. 6). Construct pDAB107636 contains the TraP19 chimeric chloroplast transit peptide (FIG. 7). Construct pDAB109847 contains the TraP26 chimeric chloroplast transit peptide (FIG. 8). Construct pDAB109848 contains the TraP27 chimeric chloroplast transit peptide (FIG. 9). Construct pDAB109849 contains the TraP28 chimeric chloroplast transit peptide (FIG. 10). […] The constructs were confirmed via restriction enzyme digestion and sequencing. Finally, the constructs were transformed into Agrobacterium tumefaciens and stored as glycerol stocks.
From an Agrobacterium glycerol stock, a loop full of frozen culture was inoculated into 2 ml of Yeast-extract Peptone Dextrose (100 μg/ml spectinomycin) in a 14 ml sterile tube. The inoculated media was incubated at 28° C. overnight with shaking at 200 rpm. The following day about 100 μl of the culture was used to inoculate 25 ml of YPD (100 μg/ml spectinomycin) in a 125 ml sterile tri-baffled flask, and incubated overnight at 28° C. overnight with shaking at 200 rpm. The following day the cultures were diluted to an OD600 of 0.5 in sterile ddH2O (pH 8.0). The diluted Agrobacterium strain was mixed with a second Agrobacterium strain containing the P19 helper protein at a ratio of 1:1. The culture were used for tobacco leaf infiltration via the Voinnet method. Voinnet O, Rivas S, Mestre P, and Baulcombe D, (2003) An enhanced transient expression system in plants based on suppression of gene silencing by the p19 protein of tomato bushy stunt virus. The Plant Journal, 33: 949-956. Infiltrated tobacco plants were placed in a Conviron™ set at 16 hr of light at 24° C. for at least three days until being assayed.
Agrobacterium-infiltrated tobacco leaves were severed from the plant, and placed into a petri-dish with water to prevent dehydration. The infiltrated tobacco leaves were observed under blue light excitation with long-pass filter glasses held in place using a Dark Reader Hand Lamp™ (Clare Chemical Research Co.; Dolores, Colo.) to identify undamaged areas of the leaf that were successfully expressing the YFP or GFP reporter proteins. […]

[2] = system: infiltrated tobacco cells; assay: Western blot of infiltrated tobacco plants; format: cell-based, Nicotiana tabacum; details: infiltrated tobacco leaf tissue
Method: Samples of the infiltrated tobacco plants were assayed via Western blotting. Leaf punches were collected and subjected to bead-milling. About 100-200 mg of leaf material was mixed with 2 BBs (Daisy; Rogers, Ark.) and […] of PBST for 3 minutes in a Kleco™ bead mill. The samples were then spun down in a centrifuge at 14,000× g at 4° C. The supernatant was removed and either analyzed directly via Western blot or immunoprecipitated. The immunoprecipitations were performed using the Pierce Direct IP Kit™ (Thermo Scientific; Rockford, Ill.) following the manufacturer's protocol. Approximately, 50 μg of anti-YFP or anti-GFP was bound to the resin. The samples were incubated with the resin overnight at 4° C. Next, the samples were washed and eluted the following morning and prepped for analysis by combining equal volumes of 2×8M Urea sample buffer and then boiling the samples for 5 minutes. The boiled samples were run on a 4-12% SDS-Bis Tris gel in MOPS buffer for 40 minutes. The gel was then blotted using the Invitrogen iBlot™ (Life Technologies; Carlsbad, Calif.) following the manufacturer's protocol. The blotted membrane was blocked for 10 minutes using 5% non-fat dry milk in PBS-Tween® solution. The membrane was probed with the primary antibody (monoclonal anti-GFP or anti-YFP in rabbit) used at a 1:1000 dilution in the 5% non-fat dry milk in PBS-Tween® solution for 1 hour. Next, the membrane was rinsed three times for five minutes with PBS-Tween® to remove all unbound primary antibody. The membrane was probed with a secondary monoclonal anti-rabbit in goat antibody (Life Technologies) used at a 1:1000 dilution, for 60 minutes. The membrane was washed as previously described and developed by adding Themo BCIP/NBT™ substrate. The colormetric substrate was allowed to develop for 5-10 minutes and then the blots were rinsed with water before being dried.

[3] = system: dgt-28 transformed T1 Arabidopsis; assay: Glyphosate tolerance of dgt-28 transformed T1 Arabidopsis; format: in vivo, Arabidopsis thaliana; details: dgt-28 linked with the chloroplast transit peptide, T1 Arabidopsis
Method: The Arabidopsis T1 transformants (from transformation with pDAB114286 or pDAB114287) were first selected from the background of untransformed seed using a glufosinate selection scheme. Three flats or 50,000 seed were analyzed for each T1 construct. The selected T1 plants were molecularly characterized (as described above) and events with a range of copy number were sprayed with various rates of commercial glyphosate.
Transgenic T1 Arabidopsis plants containing the dgt-28 transgene were sprayed with differing rates of glyphosate. Elevated rates were applied in this study to determine the relative levels of resistance (420, 840, 1,680 or 3,360 g ae/ha). The typical 1× field usage rate of glyphosate is 1120 g ae/ha. The response of these plants is presented in terms of % visual injury 2 weeks after treatment (WAT). The T1 Arabidopsis plants that were used in this study were of variable copy number for the dgt-28 transgene. The low copy dgt-28 T1 Arabidopsis plants were self-pollinated and used to produce T2 plants.
An arithmetic mean and standard deviation is presented for each construct used for Arabidopsis transformation. The range in individual response is also indicated in the last column for each rate and transformation. Wildtype, non-transformed Arabidopsis thaliana c.v. Columbia served as a glyphosate sensitive control.

[4] = system: chloroplasts of the maize protoplasts; assay: Maize protoplast transient assay, microscopy of TraP-GFP; format: cell-based, Zea mays c.v. B104; details: TraP-GFP fusion, transfected maize protoplasts, microscopy after 12 hours
Method: Seed of Zea mays c.v. B104 were surface sterilized by shaking vigorously in 50% Clorox™ (3% sodium hypochlorite), containing 2-3 drops of Tween® 20, for about 20 minutes. The seeds were rinsed thoroughly with sterile distilled water. The sterile seed were plated onto ½ MS medium in Phytatrays or similar type boxes, and allowed to grow in the dark (28° C.) for 12 to 20 days. A maize protoplast transient assay was used to obtain and transfect maize protoplasts from leaves of Zea mays c.v. B104. This maize protoplast assay is a modification of the system described by Yoo, S.-D., Cho, Y.-H., and Sheen, J., (2007), Arabidopsis Mesophyll Protoplasts: A Versitile Cell System for Transient Gene Expression Analysis, Nature Protocols, 2: 1565-1572. The solutions were prepared as described by Yoo et. al., (2007), with the exception that the mannitol concentration used for the following experiments was change to 0.6 M.
Transfection of 100 to 500 μl of protoplasts (1-5×10^5 cells) was completed by adding the protoplasts to a 2 ml microfuge tube containing about 40 μg of plasmid DNA, at room temperature. The volume of DNA was preferably kept to about 10% of the protoplast volume. The protoplasts and DNA were occasionally mixed during a 5 minute incubation period. An equal volume of PEG solution was slowly added to the protoplasts and DNA, 2 drops at a time with mixing in between the addition of the drops of PEG solution. The tubes were allowed to incubate for about 10 minutes with occasional gentle mixing. Next, 1 ml of W5+ solution was added and mixed by inverting the tube several times. The tube(s) were centrifuged for 5 minutes at 75× g at a temperature of 4° C. Finally, the supernatant was removed and the pellet was resuspended in 1 ml of WI solution and the protoplasts were placed into a small petri plate (35×10 mm) or into 6-well multiwell plates and incubated overnight in the dark at room temperature. Fluorescence of GFP was viewed by microscopy after 12 hours of incubation. The microscopy conditions similar to those previously described were used for the imaging.

Row | Molecule | translocation of YFP or GFP fluorescent protein into chloroplasts [1] | translocation of YFP or GFP fluorescent protein into chloroplasts ([1]; listed as TraP27-GFP) | TraP processed and cleaved from the YFP or GFP protein [2] | protection to glyphosate [3] | translocation of YFP or GFP fluorescent protein into chloroplasts ([1]; listed as TraP18-GFP) | translocation of GFP fluorescent protein into chloroplasts [4] | translocation of GFP fluorescent protein into chloroplasts ([4]; listed as TraP18-GFP) | translocation of YFP or GFP fluorescent protein into chloroplasts ([1]; listed as TraP19-GFP) | translocation of GFP fluorescent protein into chloroplasts ([4]; listed as TraP19-GFP) | translocation of GFP fluorescent protein into chloroplasts ([4]; listed as Trap19)
1 | B1 | accumulated within the chloroplasts; also recorded: successfully targeted GFP to tobacco chloroplasts | translocated into the chloroplasts | processed and cleaved from the YFP or GFP protein | provide protection to glyphosate | – | – | – | – | – | –
2 | B2 | accumulated within the chloroplasts; also recorded: successfully targeted GFP to maize and tobacco chloroplasts | – | processed and cleaved from the YFP or GFP protein | – | translocated into the chloroplasts | accumulated within the chloroplasts; also recorded: successfully targeted GFP to maize and tobacco chloroplasts | translocated into the chloroplasts | – | – | –
3 | B3 | accumulated within the chloroplasts; also recorded: successfully targeted GFP to maize and tobacco chloroplasts | – | processed and cleaved from the YFP or GFP protein | – | – | successfully targeted GFP to maize and tobacco chloroplasts | – | translocated into the chloroplasts | translocated into the chloroplasts | accumulated within the chloroplasts
